In patent publication US20100190202A1, “NOVEL POPULATION OF HEPATOCYTES DERIVED VIA DEFINITIVE ENDODERM (DE-HEP) FROM HUMAN BLASTOCYSTS STEM CELLS” (Cellartis AB, priority 2007, published 2010):

Assays:
hBS cells = assay: Sox17/Sox7 immunostaining of Activin A treated hBS cell cultures; format: cell-based, human; conditions: after 4 days in Activin A; of the remaining cells
Source text: We used Activin A, and Activin A in combination with Wnt3a and/or FGF2 to generate DE. After 4 to 5 days in Stage I the hBS cell colony differentiated and genetic markers for early DE were examined using quantitative real-time real time-PCR (Q-PCR). Activin A induced a strong wave of early endoderm at day 3 to 5, and was highlighted by high expression levels of Sox17, HNF3beta (HNF3b or HNF3b) and Cxcr4 expression (FIG. 4) and then reduced to near baseline levels (data not shown). […] Furthermore they up regulate early liver markers like AFP or AAT. At this early stage in differentiation and development, this indicates the presence of extraembryonic endoderm (ExE) in intrinsically differentiating colonies (FIGS. 5 and 10). The expression data were confirmed by co-staining of Sox17/Sox7, Sox17/Cxcr4, Sox17/Oct4, Sox7/HNF3b (data not shown). […] The changes of gene expression after Activin A treatment were associated to morphological changes and distinct differentiation pattern of the colonies (FIG. 2). After 4 to 5 days induction with Activin A containing medium cells gathered together and formed a ring of epithelial cells around the colony. […]
Activin A induces definitive endoderm detected by a combination of Sox17+/Sox7−, 80-90% of the total cells in a Activin A or Activin A/FGF2 treated culture are estimated to be Sox17 positive and negative for Sox7 (manual counting in microscope). […]

hESC line SA002 = assay: Real-time PCR after exposure to activin A or activin B; format: cell-based, human; conditions: 100 ng/ml, 5 ng/ml bFGF, 5 days
Method: Undifferentiated hESC line SA002 were exposed to either activin A (100 ng/ml) or activin B (100 ng/ml) in the presence of 5 ng/ml bFGF for 5 days and analyzed for gene expression.
mRNA expression of Foxa2, Sox17, CXCR4, Sox7, CDX2, AAT was measured by real-time PCR using the ABI/TaqMan method. In short, RNA was isolated from the cell cultures by using Qiagen's RNeasy system. cDNA was synthesized by using the ABI high capacity cDNA synthesis kit. RT-PCR was performed in a ABI 7500 by using TaqMan probe. The expression level was normalized to CREBBP expression.

B1: Activin A: TGF-beta family member used at 100 ng/ml to induce definitive endoderm (protein, UniProt P08476 311-426, looked up)
Inhibin beta A chain: GLECDGKVNICCKKQFFVSFKDIGWNDWIIAPSGYHANYCEGECPSHIAGTSGSSLSFHSTVINHYRMRGHSPFANLKSCCVPTKLRPMSMLYYDDGQNIIKKDIQNMIVEECGCS
modifications: Inhibin beta A chain
notes: TGF-beta family member used at 100 ng/ml to induce definitive endoderm
Sox17 positive cells (hBS cells): more than 70%

B2: activin B: activin B, 100 ng/ml, substituted for activin A for induction of endoderm (protein, UniProt P09529 293-407, looked up)
Inhibin beta B chain: GLECDGRTNLCCRQQFFIDFRLIGWNDWIIAPTGYYGNYCEGSCPAYLAGVPGSASSFHTAVVNQYRMRGLNPGTVNSCCIPTKLSTMSMLYFDDEYNIVKRDVPNMIVEECGCA
modifications: Inhibin beta B chain
mRNA expression of endodermal markers Foxa2, Sox17 and CXCR4 compared to activin A (hESC line SA002): either the same or even higher | mRNA expression of extraembryonal markers Sox7, CDX2 and AAT compared to activin A (hESC line SA002): the same or lower
